Data from patent publication KR20230010676A (dated 2023).

Tests used:
Assay in all cases: cell-based or functional assay
SARS-CoV-2 S S477N = SARS-CoV-2 S S477N (SARS-CoV-2, UniProt P0DTC2 14-1273)
SARS-CoV-2 S N501Y = SARS-CoV-2 S N501Y (SARS-CoV-2, UniProt P0DTC2 14-1273)
SARS-CoV-2 S K417N = SARS-CoV-2 S K417N (SARS-CoV-2, UniProt P0DTC2 14-1273)
SARS-CoV-2 S P384L = SARS-CoV-2 S P384L (SARS-CoV-2, UniProt P0DTC2 14-1273)
SARS-CoV-2 S A520S = SARS-CoV-2 S A520S (SARS-CoV-2, UniProt P0DTC2 14-1273)
SARS-CoV-2 S E484K = SARS-CoV-2 S E484K (SARS-CoV-2, UniProt P0DTC2 14-1273)
SARS-CoV-2 S N501T = SARS-CoV-2 S N501T (SARS-CoV-2, UniProt P0DTC2 14-1273)
SARS-CoV-2 S L452R = SARS-CoV-2 S L452R (SARS-CoV-2, UniProt P0DTC2 14-1273)
SARS-CoV-2 S Y453F = SARS-CoV-2 S Y453F (SARS-CoV-2, UniProt P0DTC2 14-1273)
SARS-CoV-2 S S494P = SARS-CoV-2 S S494P (SARS-CoV-2, UniProt P0DTC2 14-1273)
SARS-CoV-2 S N439K = SARS-CoV-2 S N439K (SARS-CoV-2, UniProt P0DTC2 14-1273)
SARS-CoV-2 S T478K = SARS-CoV-2 S T478K (SARS-CoV-2, UniProt P0DTC2 14-1273)
SARS-CoV-2 S A522S = SARS-CoV-2 S A522S (SARS-CoV-2, UniProt P0DTC2 14-1273)

Measured: S2E12의 중화 감소 (배)

B1: S2E12 (antibody, V domains shown)
VH: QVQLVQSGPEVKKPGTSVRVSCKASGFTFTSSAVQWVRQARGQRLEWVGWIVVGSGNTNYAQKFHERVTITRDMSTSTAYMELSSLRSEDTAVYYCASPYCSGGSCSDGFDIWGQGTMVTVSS
VL: DIVLTQTPGTLSLSPGERATLSCRASQSVSSSYLAWYQQKPGQAPRLLIYGASSRATGIPDRFSGSGSGTDFTLTISRLEPEDFAVYYCQQYVGLTGWTFGQGTKVEIK
notes: also called S2E12 WT; S2E12 wt
< 3 배: SARS-CoV-2 S S477N | SARS-CoV-2 S N501Y | SARS-CoV-2 S K417N | SARS-CoV-2 S P384L | SARS-CoV-2 S A520S | SARS-CoV-2 S E484K | SARS-CoV-2 S N501T | SARS-CoV-2 S L452R | SARS-CoV-2 S Y453F | SARS-CoV-2 S S494P | SARS-CoV-2 S N439K | SARS-CoV-2 S T478K | SARS-CoV-2 S A522S
